Laboratory results taken from patent publication US20130122568.
Positions count from the first letter of the chain named.

How the values were obtained:
Test in all cases: cleavage_in_vitro
[1] = target: T1, SalI (Streptomyces albus G) (UniProt Q53608); conditions: NEB3, 37 C
T1 sequence: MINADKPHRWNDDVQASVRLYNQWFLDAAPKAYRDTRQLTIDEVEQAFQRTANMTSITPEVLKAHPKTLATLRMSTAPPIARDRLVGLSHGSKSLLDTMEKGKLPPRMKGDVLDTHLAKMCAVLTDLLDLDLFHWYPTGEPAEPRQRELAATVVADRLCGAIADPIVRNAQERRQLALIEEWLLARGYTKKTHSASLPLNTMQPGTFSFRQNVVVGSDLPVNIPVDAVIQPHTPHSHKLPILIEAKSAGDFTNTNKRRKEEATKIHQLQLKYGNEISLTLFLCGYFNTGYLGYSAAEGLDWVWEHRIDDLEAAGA

[2] = target: T2, SalI-HF R107A (Streptomyces albus G) (UniProt Q53608); conditions: NEB2, 37 C
T2 sequence: T1 sequence with R107A

[3] = test system: T3, AvrII-HF Y104F (Anabaena variabilis); conditions: NEB4, 37 C
T3 sequence: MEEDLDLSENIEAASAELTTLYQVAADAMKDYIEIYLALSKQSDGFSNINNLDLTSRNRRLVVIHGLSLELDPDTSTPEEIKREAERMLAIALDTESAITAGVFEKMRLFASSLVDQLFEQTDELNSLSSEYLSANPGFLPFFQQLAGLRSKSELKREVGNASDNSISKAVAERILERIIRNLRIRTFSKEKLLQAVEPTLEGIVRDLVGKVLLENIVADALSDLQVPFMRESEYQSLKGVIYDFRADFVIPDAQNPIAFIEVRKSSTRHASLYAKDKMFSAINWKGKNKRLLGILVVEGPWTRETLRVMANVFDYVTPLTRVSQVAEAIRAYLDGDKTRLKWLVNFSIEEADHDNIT

[4] = test system: T4, AvrII (Anabaena variabilis); conditions: NEB1, 37 C
T4 sequence: T3 sequence with F104Y

PvuII (Proteus vulgaris) = target: T5, PvuII (Proteus vulgaris) (UniProt P23657); conditions: NEB1, 37 C
T5 sequence: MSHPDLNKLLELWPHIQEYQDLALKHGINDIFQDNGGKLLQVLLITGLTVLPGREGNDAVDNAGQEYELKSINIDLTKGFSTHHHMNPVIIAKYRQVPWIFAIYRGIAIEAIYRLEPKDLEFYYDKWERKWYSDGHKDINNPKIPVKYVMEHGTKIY

HindIII-digested lambda DNA
activity (fidelity index) [1]: 32 | activity (fidelity index) [2]: > 64000

T7 DNA
activity (fidelity index) [3]: > 1000 | activity (fidelity index) [4]: 64

pBR322
activity (fidelity index) (PvuII (Proteus vulgaris)): 250
